Reference: PMC4984425

Key:
[1] = biological target: FITC-labeled PDIA6 (mouse) (UniProt Q922R8); test: MST
[2] = biological target: His-tagged IRE1α ER luminal domain (IRE1-NLD); test: SPR

| Molecule | Kd [1] | Kd [2] |
| --- | --- | --- |
| His-tagged IRE1α ER luminal domain (IRE1-NLD) (domain or fragment) | 20 nM | – |
| PDIA6 isolated from mouse liver microsomal fraction (natural protein) LYSSSDDVIELTPSNFNREVIQSDGLWLVEFYAPWCGHCQRLTPEWKKAATALKDVVKVGAVNADKHQSLGGQYGVQGFPTIKIFGANKNKPEDYQGGRTGEAIVDAALSALRQLVKDRLGGRSGGYSSGKQGRGDSSSKKDVVELTDDTFDKNVLDSEDVWMVEFYAPWCGHCKNLEPEWAAAATEVKEQTKGKVKLAAVDATVNQVLASRYGIKGFPTIKIFQKGESPVDYDGGRTRSDIVSRALDLFSDNAPPPELLEIINEDIAKKTCEEHQLCVVAVLPHILDTGAAGRNSYLEVLLKLADKYKKKMWGWLWTEAGAQYELENALGIGGFGYPAMAAINARKMKFALLKGSFSEQGINEFLRELSFGRGSTAPVGGGSFPTITPREPWDGKDGELPVEDDIDLSDVELDDLEKDEL | – | 22 nM |
